Sequences and labels used below:
T1: recombinant human Fc gamma RIIa (CD32a) 131R (human, UniProt P12318 36-218)
T1 sequence (looked up): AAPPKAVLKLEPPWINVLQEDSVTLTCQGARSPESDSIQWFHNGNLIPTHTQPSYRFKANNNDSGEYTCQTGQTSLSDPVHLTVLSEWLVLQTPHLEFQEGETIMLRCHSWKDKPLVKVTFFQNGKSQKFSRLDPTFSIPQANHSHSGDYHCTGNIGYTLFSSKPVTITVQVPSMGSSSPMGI

T2: recombinant human Fc gamma RIIb/c (CD32b/c) (human, UniProt P31994 46-217)
T2 sequence (looked up): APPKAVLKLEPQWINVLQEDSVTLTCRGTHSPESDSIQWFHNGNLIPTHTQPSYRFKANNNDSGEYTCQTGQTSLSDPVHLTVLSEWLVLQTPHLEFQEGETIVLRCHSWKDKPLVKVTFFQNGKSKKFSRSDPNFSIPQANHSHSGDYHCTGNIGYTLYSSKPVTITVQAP

T3: recombinant human Fc gamma RIIa (CD32a) 131H (human, UniProt P12318 36-218)
T3 sequence (looked up): T1 sequence (looked up) with R132H

T4: CD20 Lipoparticles (Homo sapiens (Human), UniProt P11836 1-297)
T4 sequence: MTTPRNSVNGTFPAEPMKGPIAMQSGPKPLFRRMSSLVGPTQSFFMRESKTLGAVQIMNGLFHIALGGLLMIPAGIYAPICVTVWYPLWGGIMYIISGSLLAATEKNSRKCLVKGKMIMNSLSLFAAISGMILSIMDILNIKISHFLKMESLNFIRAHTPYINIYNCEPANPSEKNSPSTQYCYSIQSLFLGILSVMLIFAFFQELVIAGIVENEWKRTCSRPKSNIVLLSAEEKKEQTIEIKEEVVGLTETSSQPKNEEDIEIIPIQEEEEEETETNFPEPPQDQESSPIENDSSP

B1: Rc66SIDE (antibody, human IgG1, kappa)
light: QIVLSQSPAILSASPGEKVTMTCRASSSVSYIHWFQQKPGSSPKPWIYATSNLASGVPVRFSGSGSGTSYSLTISRVEAEDAATYYCQQWTSNPPTFGGGTKLEIKRTVAAPSVFIFPPSDEQLKSGTASVVCLLNNFYPREAKVQWKVDNALQSGNSQESVTEQDSKDSTYSLSSTLTLSKADYEKHKVYACEVTHQGLSSPVTKSFNRGEC
heavy: QVQLQQPGAELVKPGASVKMSCKASGYTFTSYNMHWVKQTPGRGLEWIGAIYPGNGDTSYNQKFKGKATLTADKSSSTAYMQLSSLTSEDSAVYYCARSTYYGGDWYFNVWGAGTTVTVSAASTKGPSVFPLAPSSKSTSGGTAALGCLVKDYFPEPVTVSWNSGALTSGVHTFPAVLQSSGLYSLSSVVTVPSSSLGTQTYICNVNHKPSNTKVDKKAEPKSCDKTHTCPPCPAPELLGGPDVFLFPPKPKDTLMISRTPEVTCVVVDVSHEDPEVKFNWYVDGVEVHNAKTKPREEQYNSTYRVVSVLTVLHQDWLNGKEYKCKVSNKALPAPEEKTISKAKGQPREPQVYVLPPSRDELTKNQVSLLCLVKGFYPSDIAVEWESNGQPENNYLTWPPVLDSDGSFFLYSKLTVDKSRWQQGNVFSCSVMHEALHNHYTQKSLSLSPGK
chain: CPPCPAPELLGGPDVFLFPPKPKDTLMISRTPEVTCVVVDVSHEDPEVKFNWYVDGVEVHNAKTKPREEQYNSTYRVVSVLTVLHQDWLNGKEYKCKVSNKALPAPEEKTISKAKGQPREPQVYVYPPSRDELTKNQVSLTCLVKGFYPSDIAVEWESNGQPENNYKTTPPVLDSDGSFALVSKLTVDKSRWQQGNVFSCSVMHEALHNHYTQKSLSLSPGK
B2: Rc66SIDE-P4-Rc66SIDE (antibody, human IgG1, kappa)
light: B1 light
heavy: B1 heavy
chain: B1 chain
B3: Rc66SIDE-P28-Rc66SIDE (antibody, human IgG1, kappa)
light: B1 light
heavy: B1 heavy
chain: B1 chain
B4: Rc66SIDE-P16-Rc66SIDE (antibody, human IgG1, kappa)
light: B1 light
heavy: B1 heavy
chain: B1 chain

Where a chain is given by its changes, count along the chain named.

Sequence of recombinant human Fc gamma RIIIa (CD16a) 158F (P08637 17-208 limits assumed): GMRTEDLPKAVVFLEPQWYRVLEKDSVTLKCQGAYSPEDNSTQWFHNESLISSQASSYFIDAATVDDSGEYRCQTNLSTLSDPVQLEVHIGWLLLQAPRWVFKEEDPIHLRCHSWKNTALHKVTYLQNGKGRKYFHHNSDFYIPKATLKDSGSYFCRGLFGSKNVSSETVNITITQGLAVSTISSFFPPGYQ

The first assay concerns the target recombinant human Fc gamma RIIIa (CD16a) 158F (human, UniProt P08637 17-208).
Consider B1, for which the equilibrium dissociation constant (Kd) was 76.8 nM.
On to B2, for which the Kd is 3.87 nM.
Turning to B3, the Kd came to 6.62 nM.
The same measure, in the same setting: the figure for B4 is 2.71 nM.

For another assay, the target named is recombinant human Fc gamma RIIIa (CD16a) 158V (human, UniProt P08637 17-208).
Sequence of recombinant human Fc gamma RIIIa (CD16a) 158V (P08637 17-208 F176V limits assumed): as the sequence (P08637 17-208 limits assumed) above, with F160V counted along it
Turning to B1, the Kd came to 46.2 nM.
For B2, the Kd turned out to be 1.14 nM.
With B3, the Kd was found to be 4.98 nM.
Still for that read-out and setting: the figure for B4 is 0.257 nM.

In another assay the target is recombinant human Fc gamma RI (CD64) (human, UniProt P12314 16-288).
Sequence of recombinant human Fc gamma RI (CD64) (P12314 16-288 limits assumed): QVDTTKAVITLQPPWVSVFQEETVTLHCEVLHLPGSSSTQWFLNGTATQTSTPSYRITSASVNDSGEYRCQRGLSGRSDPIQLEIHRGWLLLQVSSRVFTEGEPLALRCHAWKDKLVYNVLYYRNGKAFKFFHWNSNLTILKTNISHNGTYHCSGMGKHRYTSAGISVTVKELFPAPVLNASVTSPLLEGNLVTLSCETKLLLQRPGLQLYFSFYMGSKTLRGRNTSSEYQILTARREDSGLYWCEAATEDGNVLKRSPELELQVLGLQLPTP
In the case of B2, the Kd is under 0.001 nM.
Regarding B3, the Kd is 1.14 nM.
On the same count and under the same terms, the figure for B4 is under 0.001 nM.

The target in the next assay is recombinant human Fc gamma RIIIb (CD16b) (human, UniProt O75015 17-200).
Sequence of recombinant human Fc gamma RIIIb (CD16b) (O75015 17-200 limits assumed): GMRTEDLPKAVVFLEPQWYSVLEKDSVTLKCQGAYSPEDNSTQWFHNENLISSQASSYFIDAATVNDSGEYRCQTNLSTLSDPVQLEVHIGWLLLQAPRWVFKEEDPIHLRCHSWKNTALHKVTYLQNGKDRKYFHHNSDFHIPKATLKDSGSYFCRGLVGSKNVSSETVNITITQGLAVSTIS
For the molecule B1, the Kd stood at 163 nM.
Regarding B2, the Kd came out at 1.05 nM.
Turning to B3, the Kd was 5.64 nM.
Regarding B4, the Kd was under 0.001 nM.

A further assay has as its target T1, recombinant human Fc gamma RIIa (CD32a) ….
Turning to B1, the Kd came out at 202 nM.
The same measure, in the same setting: the figure for B2 is 4.93 nM; for B3 it is 8.11 nM; for B4 it is 1.83 nM.

For another assay, the target named is T2, recombinant human Fc gamma RIIb/c ….
With B1, the Kd is 253 nM.
Take B2: the Kd came to 3.17 nM.
In the case of B3, the Kd was 7.28 nM.
As to B4, the Kd was 0.556 nM.

The target of another assay is T3, recombinant human Fc gamma RIIa (CD32a) ….
For the molecule B1, the Kd was found to be 255 nM.
For the molecule B2, the Kd was found to be 2.54 nM.
Still for that read-out and setting: the figure for B3 is 5.42 nM; for B4 it is 0.808 nM.

Another assay addresses T4, CD20 Lipoparticles.
In turn, B1 registered an equilibrium dissociation constant (Kd) of 21.4 nM.
As to B2, the Kd was under 0.001 nM.
The molecule B3 displayed a Kd of under 0.001 nM.
For the molecule B4, the Kd is under 0.001 nM.

(Values after patent US20250084169A1 (published 2025).)
